Tests used:
[1] = system: T1, AV199-232
T1 sequence: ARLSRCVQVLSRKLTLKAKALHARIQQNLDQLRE

[2] = system: T2, AV199-237
T2 sequence: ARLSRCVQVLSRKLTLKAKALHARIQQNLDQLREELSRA

[3] = system: apoC-III content of VLDL

## lipoprotein lipase (LpL), SIGMA
[1]
  Km of LpL for substrate, with VLDL, 2.5 µM peptide: substantially improved the Km by almost 8-fold
  apparent affinity of LpL for substrate (Michaelis-Menten fit), AV199-232 (2.5 µM) + VLDL (10 µg/ml): AV199-232+VLDL increases LpL's apparent affinity for substrate by 7.8-fold
[2]
  LpL hydrolytic activity (EnzChek fluorogenic TG substrate), peptide pre-incubated with VLDL: hydrolytic activity was increased ˜4-fold
[3]
  affinity of LpL for substrate on addition of VLDL (10 µg/ml): The addition of VLDL reduced the enzymes affinity for substrate by 5.3-fold

From US20170305981
